Results taken from publication PMC8372784, “AMOTL2 mono-ubiquitination by WWP1 promotes contact inhibition by facilitating LATS activation” (Life Science Alliance, 2021).

Target: T1, GST-WWP1 (WW-domain containing protein 1) (UniProt Q9H0M0 1-922)
T1 construct: WWP1, HECT-type E3 ligase, full length; source: baculovirus-infected Sf9 insect cells, purified
Test: pull-down; GST or GST-WWP1 (1 μg) immobilised on glutathione-Sepharose 4B, 200 ng AMOTL2-V5; 20 mM Tris-Cl pH 7.9, 150 mM KCl, 0.2 mM EDTA, 20% glycerol, 0.05% NP-40, 0.2 mg/ml BSA; 4°C, 3 h; Western blot
Settings: both partners purified

B1: AMOTL2-V5 (angiomotin-like 2) (natural protein, UniProt Q9Y2J4 1-779, looked up)
chain: MRTLEDSSGTVLHRLIQEQLRYGNLTETRTLLAIQQQALRGGAGTGGTGSPQASLEILAPEDSQVLQQATRQEPQGQEHQGGENHLAENTLYRLCPQPSKGEELPTYEEAKAHSQYYAAQQAGTRPHAGDRDPRGAPGGSRRQDEALRELRHGHVRSLSERLLQLSLERNGARAPSHMSSSHSFPQLARNQQGPPLRGPPAEGPESRGPPPQYPHVVLAHETTTAVTDPRYRARGSPHFQHAEVRILQAQVPPVFLQQQQQYQYLQQSQEHPPPPHPAALGHGPLSSLSPPAVEGPVSAQASSATSGSAHLAQMEAVLRENARLQRDNERLQRELESSAEKAGRIEKLESEIQRLSEAHESLTRASSKREALEKTMRNKMDSEMRRLQDFNRDLRERLESANRRLASKTQEAQAGSQDMVAKLLAQSYEQQQEQEKLEREMALLRGAIEDQRRRAELLEQALGNAQGRAARAEEELRKKQAYVEKVERLQQALGQLQAACEKREQLELRLRTRLEQELKALRAQQRQAGAPGGSSGSGGSPELSALRLSEQLREKEEQILALEADMTKWEQKYLEERAMRQFAMDAAATAAAQRDTTLIRHSPQPSPSSSFNEGLLTGGHRHQEMESRLKVLHAQILEKDAVIKVLQQRSRRDPGKAIQGSLRPAKSVPSVFAAAAAGTQGWQGLSSSERQTADAPARLTTDRAPTEEPVVTAPPAAHAKHGSRDGSTQTEGPPDSTSTCLPPEPDSLLGCSSSQRAASLDSVATSRVQDLSDMVEILI
notes: AMOTL2 (angiomotin-like 2), full length; The legends print AMOTL-V5; the text prints AMOTL2-V5; also called AMOTL-V5; source: baculovirus-infected Sf9 insect cells, purified
  binding result: binds
